US20190276509A1 (Memorial Sloan Kettering, published 2019)
No end group written: not given here.

What was measured:
[1] = molecular target: purified recombinant CBP KIX domain (Homo sapiens (Human)) (UniProt Q92793); assay: microscale thermophoresis (MST), FITC-peptide fixed, purified KIX titrated, n=3
[2] = molecular target: purified recombinant CBP KIX domain (Homo sapiens (Human)) (UniProt Q92793); assay: microscale thermophoresis (MST), FITC-peptide at fixed concentration, purified KIX titrated; concentration read is that of KIX
[3] = molecular target: T1, purified recombinant CBP KIX domain (Homo sapiens (Human), UniProt Q92793 587-666); assay: microscale thermophoresis (MST), FITC-peptide at fixed concentration, purified KIX titrated
T1 construct: Linker residues may remain after the thrombin cut; also called purified KIX

[4] = molecular target: T1, purified recombinant CBP KIX domain; assay: microscale thermophoresis (MST), FITC-peptide at fixed concentration, purified KIX titrated; concentration read is that of KIX
[5] = molecular target: T1, purified recombinant CBP KIX domain; assay: microscale thermophoresis (MST), FITC-peptide fixed, purified KIX titrated, n=3

T1 sequence (Q92793 587-666 limits assumed): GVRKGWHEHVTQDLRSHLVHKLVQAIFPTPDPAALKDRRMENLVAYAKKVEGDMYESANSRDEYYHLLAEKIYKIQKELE
purified recombinant CBP KIX domain (Homo sapiens (Human)), sequence (Q92793 587-666 limits assumed): as above

FITC-MYBMIM (FITC-conjugated D-amino acid retro-inverso peptide, D-aa)
Kd [1]: 25.4 µM
EC50 (read off the curve) [2]: 30 µM

B1: FITC-TAT (fluorescein-conjugated TAT peptide, FITC-AHA-YGRKKRRQRRR-NH2) (peptide)
peptide: YGRKKRRQRRR
modifications: not fully specified; N-terminal FITC-aminohexanoic acid (FITC-AHA); C-terminal amide; L-amino acids
binding result [3]: no binding (tested: about 50 uM KIX)

B2: FITC-MYB (FITC-conjugated L-amino acid peptide, L-aa) (peptide)
peptide: YGRKKRRQRRRGGKRIKELELLLMSTENELK-NH2
modifications: not fully specified (N-terminus); also: conjugated to FITC, site not given here, N-terminal acetyl
notes: It is uncertain whether the labelled peptide carried the TAT part; also called L-aa peptide
EC50 (read off the curve) [4]: ~5 µM
Kd [5]: 5.25 µM
